Data on eleven molecules can be found in patent US20130244938A1 (Stanford University, published 2013).

Experiment [1] concerns the target T1, LGR7 (leucine-rich repeat-containing GPCR 7) (human) (UniProt Q9HBX9).
T1 sequence (looked up): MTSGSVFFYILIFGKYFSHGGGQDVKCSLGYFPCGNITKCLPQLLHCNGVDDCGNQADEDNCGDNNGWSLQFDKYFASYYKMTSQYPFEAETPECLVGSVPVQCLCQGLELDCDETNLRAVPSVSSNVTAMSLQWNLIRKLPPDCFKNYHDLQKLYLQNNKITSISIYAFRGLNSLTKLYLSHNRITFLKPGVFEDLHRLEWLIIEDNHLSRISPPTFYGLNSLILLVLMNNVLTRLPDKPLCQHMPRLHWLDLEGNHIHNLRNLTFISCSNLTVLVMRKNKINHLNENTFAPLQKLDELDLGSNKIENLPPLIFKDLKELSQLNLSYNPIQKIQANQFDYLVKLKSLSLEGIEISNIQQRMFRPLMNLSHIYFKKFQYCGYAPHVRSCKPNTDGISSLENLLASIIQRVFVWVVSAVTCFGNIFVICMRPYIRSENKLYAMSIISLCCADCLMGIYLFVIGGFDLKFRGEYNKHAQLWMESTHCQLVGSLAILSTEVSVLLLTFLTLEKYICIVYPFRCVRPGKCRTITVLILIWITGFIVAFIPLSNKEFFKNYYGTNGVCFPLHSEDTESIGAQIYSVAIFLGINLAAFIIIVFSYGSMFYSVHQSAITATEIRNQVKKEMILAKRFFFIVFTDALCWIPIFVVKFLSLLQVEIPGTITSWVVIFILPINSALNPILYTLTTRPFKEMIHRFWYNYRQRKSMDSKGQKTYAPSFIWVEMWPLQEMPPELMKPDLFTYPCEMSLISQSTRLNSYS
The experiment in a line: cell-based or functional assay.

Experiment [2] concerns the target LGR8 (leucine-rich repeat-containing GPCR 8) (human) (UniProt Q8WXD0). In words: cell-based or functional assay.
Experiment [3] deals with T2, LGR7 (leucine-rich repeat-containing GPCR 7) (human, UniProt Q9HBX9 1-757).
T2 sequence (looked up): T1 sequence (looked up)
The experiment in a line: cell-based or functional assay.

The target in experiment [4] is T3, LGR8 (leucine-rich repeat-containing GPCR 8) (human, UniProt Q8WXD0 1-754). The experiment in a line: cell-based or functional assay.
T3 sequence (Q8WXD0 whole entry): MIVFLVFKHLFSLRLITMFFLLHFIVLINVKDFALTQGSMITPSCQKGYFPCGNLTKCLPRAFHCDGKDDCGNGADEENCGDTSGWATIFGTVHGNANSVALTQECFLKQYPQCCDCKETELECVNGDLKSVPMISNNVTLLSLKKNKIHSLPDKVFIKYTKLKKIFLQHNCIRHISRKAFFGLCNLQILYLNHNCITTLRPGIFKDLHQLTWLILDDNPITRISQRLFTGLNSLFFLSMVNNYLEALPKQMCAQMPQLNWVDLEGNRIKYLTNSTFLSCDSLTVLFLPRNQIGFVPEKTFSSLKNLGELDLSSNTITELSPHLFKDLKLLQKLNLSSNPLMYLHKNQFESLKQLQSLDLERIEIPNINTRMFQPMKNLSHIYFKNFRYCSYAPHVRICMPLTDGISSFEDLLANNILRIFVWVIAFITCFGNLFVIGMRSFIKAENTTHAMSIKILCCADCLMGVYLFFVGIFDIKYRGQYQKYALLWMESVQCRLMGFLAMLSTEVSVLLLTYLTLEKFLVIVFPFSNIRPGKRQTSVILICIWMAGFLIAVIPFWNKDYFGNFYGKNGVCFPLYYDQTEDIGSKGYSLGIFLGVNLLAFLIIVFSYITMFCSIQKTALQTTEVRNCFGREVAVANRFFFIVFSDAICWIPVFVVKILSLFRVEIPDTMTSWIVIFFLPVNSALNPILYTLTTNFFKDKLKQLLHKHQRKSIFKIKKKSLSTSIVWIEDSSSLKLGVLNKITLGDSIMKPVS
Experiment [5] has as its target T2, LGR7 (leucine-rich repeat-containing …). The experiment in a line: competition with 125I-RLN2 tracer on LGR7-expressing HEK293T cells. Here is the method:
(§1) To determine the binding characteristics of wild type and mutant peptides, HEK293T cells expressing LGR7 or LGR8 were grown to 90% confluence, collected by centrifugation at 3000×g for 2 min, and washed two times in 2 ml of ice-cold binding buffer. Cells were resuspended in ice-cold binding buffer, and aliquots of cell suspension were incubated with increasing doses of purified recombinant peptides in the presence of 0.025 pmol of ¹²⁵I-labeled RLN2 tracer (Phoenix Pharmaceuticals, Burlingame, Calif.) at room temperature for 2 h. After washing three times in an ice-cold binding buffer, radioactivity bound to the cells was measured using a y-counter (EG&G Wallace, Gaithersburg, Md.). Total binding was determined in the absence, and nonspecific binding in the presence, of 25 nmol of unlabeled RLN2. In regular assays, total binding was ˜30,000 cpm, and nonspecific binding amounted to less than 20% of the total binding. Data points were collected in triplicate, and similar results were obtained in at least two independent assays.

Experiment [6] addresses T3, LGR8 (leucine-rich repeat-containing …). The experiment in a line: competition with 125I-RLN2 tracer on LGR8-expressing HEK293T cells. Here is the method: as §1
Experiment [7] has the same target. The experiment in a line: competition with 125I-RLN2 on LGR8-expressing HEK293T cells (Table 2 cell: ND, pIC50 not measurable). Here is the method: as §1
The target is the same in experiment [8]. The experiment in a line: cell-based or functional assay. The source holds these as a separate data set.

Where no end group is shown, it is not given here.

Sequence of LGR8 (leucine-rich repeat-containing GPCR 8) (human) (Q8WXD0 whole entry): as above

With WT RLN2 (His2) (ligand), the pEC50, stimulation of cAMP production in LGR7-expressing HEK293T cells in experiment [1] was found to be 8.77.

In turn, WT RLN2 (His1) (ligand) yielded a pEC50, stimulation of cAMP production in LGR7-expressing HEK293T cells in experiment [1] of 8.66.

B1: WT INSL3 (recombinant human insulin-like 3, Myc- and His6-tagged) (ligand, not shown: small tags and cut ends)
chain 1: PTPEMREKLCGHHFVRALVRVCGGPRWSTEAHHHHHH
chain 2: AAATNPARYCCLSGCTQQDLLTLCPY
B1 showed a pEC50, stimulation of cAMP production in LGR8-expressing HEK293T cells in experiment [2] of 9.03.

B2: WT RLN3 (recombinant human relaxin 3, Myc- and His6-tagged) (ligand, not shown: small tags and cut ends)
chain 1: RAAPYGVRLCGREFIRAVIFTCGGSRWHHHHHH
chain 2: DVLAGLSSSCCKWGCSKSEISSLC
modifications: not fully specified; ends and bridges not checked; also: N-terminal Myc epitope tag
Molecule B2 gave a pEC50, stimulation of cAMP production in LGR7-expressing HEK293T cells in experiment [1] of 7.73.

B3: WT RLN2 (recombinant wild type human RLN2, Myc- and His6-tagged) (ligand, not shown: small tags and cut ends)
chain 1: SWMEEVIKLCGRELVRAQIAICGMSTWSHHHHHH
chain 2: QLYSALANKCCHVGCTKRSLARFC
notes: also called wild type RLN2; wild type peptide
For the molecule B3, in experiment [3], the “pEC50, stimulation of cAMP production in LGR7-expressing HEK293T cells” value (“pEC50 … in LGR7-expressing HEK293T cells” for short) is 9.3. In experiment [4], the “pEC50, stimulation of cAMP production in LGR8-expressing HEK293T cells” value (“pEC50 … in LGR8-expressing HEK293T cells” for short) was 7.41. For the same molecule, the pIC50 was determined as 8.72 in experiment [5] and 7.9 in experiment [6].

B4: RLN2^A22-23 (ligand, not shown: small tags and cut ends)
chain 1: B3 chain 1
chain 2: QLYSALANKCCHVGCTKRSLAAAC
notes: It is read here as both residues changed to alanine
For B4, the “pEC50 … in LGR7-expressing HEK293T cells” value in experiment [3] came out at 8.87. In experiment [5], this molecule yielded a pIC50 of 7.5. Moreover, the binding result in experiment [7] is listed as “no binding”.

B5: RLN2 R^A22A (ligand, not shown: small tags and cut ends)
chain 1: B3 chain 1
chain 2: QLYSALANKCCHVGCTKRSLAAFC
modifications: not fully specified; ends and bridges not checked; also: N-terminal Myc epitope tag
notes: Construct with the 8-amino acid linker, processed to the mature two-chain form
In the case of B5, the “pEC50 … in LGR7-expressing HEK293T cells” value in experiment [3] was determined as 10. Further, the “pEC50 … in LGR8-expressing HEK293T cells” value in experiment [4] is 7.51. Besides, the values for the pIC50 in experiment [5] and in experiment [6] were 8.42 and 6.8, respectively.

B6: RLN2 T^A16A (ligand, not shown: small tags and cut ends)
chain 1: B3 chain 1
chain 2: QLYSALANKCCHVGCAKRSLARFC
modifications: not fully specified; ends and bridges not checked; also: N-terminal Myc epitope tag
notes: as for B5
Consider B6, for which the “maximum LGR8-activation activity (cAMP production), against wild type RLN2” value in experiment [8] was determined as 2 fold. Also, in experiment [3], the “pEC50 … in LGR7-expressing HEK293T cells” value came out at 9.75. The “pEC50 … in LGR8-expressing HEK293T cells” value in experiment [4] is 8.04. In addition, the values for the pIC50 in experiment [5] and in experiment [6] were 8.4 and 7.74, respectively.

B7: RLN2^A19-20 (ligand, not shown: small tags and cut ends)
chain 1: B3 chain 1
chain 2: QLYSALANKCCHVGCTKRAAARFC
notes: as for B4
Take B7: the “pEC50 … in LGR7-expressing HEK293T cells” value in experiment [3] turned out to be 8.56. Moreover, the “pEC50 … in LGR8-expressing HEK293T cells” value in experiment [4] was determined as 8.41. The pIC50 in experiment [5] turned out to be 8.21; in experiment [6] it was 7.51.

B8: RLN2 R^A18A (ligand, not shown: small tags and cut ends)
chain 1: B3 chain 1
chain 2: QLYSALANKCCHVGCTKASLARFC
For B8, the “pEC50 … in LGR7-expressing HEK293T cells” value in experiment [3] came to 9.67. For the same molecule, the “pEC50 … in LGR8-expressing HEK293T cells” value in experiment [4] was 7.56. Further, the figures for the pIC50 in experiment [5] and in experiment [6] were 8.42 and 7.46, respectively.

B9: Nontagged human RLN2 peptide (ligand)
chain 1: SWMEEVIKLCGRELVRAQIAICGMSTWS
chain 2: QLYSALANKCCHVGCTKRSLARFC
modifications: not fully specified (bridges); ends and bridges not checked
notes: Used as a standard; also called Nontagged RLN2; nontagged wild type RLN2 peptide
B9: in experiment [3], the “pEC50 … in LGR7-expressing HEK293T cells” value stood at 6.53. In addition, the pIC50 in experiment [5] worked out at 8.78.
